Biological target: the molecule itself
Experiment: AUC

B1: histidine tagged MutL–NTD (domain or fragment, E. coli, UniProt P23367 1-375, looked up)
chain: MPIQVLPPQLANQIAAGEVVERPASVVKELVENSLDAGATRIDIDIERGGAKLIRIRDNGCGIKKDELALALARHATSKIASLDDLEAIISLGFRGEALASISSVSRLTLTSRTAEQQEAWQAYAEGRDMNVTVKPAAHPVGTTLEVLDLFYNTPARRKFLRTEKTEFNHIDEIIRRIALARFDVTINLSHNGKIVRQYRAVPEGGQKERRLGAICGTAFLEQALAIEWQHGDLTLRGWVADPNHTTPALAEIQYCYVNGRMMRDRLINHAIRQACEDKLGADQQPAFVLYLEIDPHQVDVNVHPAKHEVRFHQSRLVHDFIYQGVLSVLQQQLETPLPLDDEPQPAPRSIPENRVAAGRNHFAEPAAREPVAPR
**Q.** For B1, which “stoichiometry N” value is on record?
**A.** 2

Reference: PMC2715241 (Nucleic Acids Research, 2009)
